The text below walks through data of US11547721B2, “Magnetic nanoparticles for use in the treatment of tumors” (CONSIGLIO NAZIONALE DELLE RICERCHE, priority 2018, dated 2023).

Data set [1] relates to IGROV-1 cells. The data set can be described thus: Cytotoxicity, cell viability assay with Presto blue. The class given is cell-based. On the procedure:
Cytotoxicity studies have been conducted to confirm the activity of the platinum-based chemotherapeutic agent attached to the nanocubes. IGROV-1 cells were incubated with nanocubes functionalized with oxaliplatin and antibody (in FIG. 3a indicated as NCs_OHP_C4) for 24, 48 and 72 hours at Fe concentration equal to 0.05 g/L, 0.1 g/L and 0.15 g/L, corresponding to 1.3, 2.6 and 3.9 μM of oxaliplatin chemotherapeutic agent. Cell viability has been verified in an assay with Presto blue. […] The toxicity of the chemotherapeutic agent alone was administered, administered to the cells for 24 hours, 48 hours and 72 hours at the concentration of oxaliplatin corresponding to the same quantity loaded on the nanocubes. […] It is also important to note that in these experiments the control consisted of nanocubes with polymeric coating, functionalised with PEG-NTA-C4, but lacking oxaliplatin, prepared as described above.
Cytotoxicity data were also collected for longer-time treatments, to verify the toxicity of oxaliplatin loaded on the nanocubes according to the invention over extended periods of time. In fact, since the action of platinum-based chemotherapy drugs involves their interleaving within the cell's DNA, the adverse effects of treatment with these drugs should be more evident at longer times after exposure to the drug. Then, after exposure of the IGROV-1 cells to the nanocubes functionalized with antibody and drug for 24, 48 and 72 hours of treatment respectively, the supernatant was removed and the cells were kept in a fresh culture medium for a further 24, 48 or 72 hours. The viability of these cells was verified by analysis with blue Presto immediately after direct exposure to the nanocubes and at 24, 48 and 72 hours after incubation.

In data set [2] the test system is IGROV-1 cells. The data set can be described thus: Hyperthermia combined with release of chemotherapeutic agent, viability with Presto blue. The class given is cell-based. To be noted: for cell viability at 24 hours / cell viability at 48 hours / cell viability at 120 hours: with hyperthermia (2 x 30 min, 42° C., 27 kA m^−1, 182 kHz), 5.5 g Fe/L. The protocol:
Hyperthermia experiments were conducted on cells treated with the invention's nanocubes to monitor the efficiency of nanoparticles in killing tumor cells with heat and improving the toxicity mediated by oxaliplatin. In practice, 3×10^6 IGROV-1 cells were incubated with 5.5 g of Fe/L of invention nanocubes functionalized with oxaliplatin and NCs-PEG-Pt-C4 antibody fragment, and exposed to a magnetic field of 27 kA m^−1 at frequency of 182 kHz, so as not to exceed the biological limit (Hf=5×10^9 A m^−1 s^−1). Two consecutive 30-minutes hyperthermia treatments were then performed, each with a maximum temperature reached in these conditions of 42° C. Also included in this study were: untreated cells, cells incubated with nanocubes functionalized only with antibody without oxaliplatin (exposed and not exposed to hyperthermia), and cells incubated with nanocubes functionalized with antibody and oxaliplatin not exposed to hyperthermia. A control experiment was also performed by incubating the cells with free oxaliplatin at the same amount of platinum loaded on the nanocubes (28 μg of platinum, corresponding to 140 μM of oxaliplatin).
After the hyperthermal treatment, the cells were washed to remove excess nanocubes present and re-seeded in a fresh culture medium (5×10^4 cells per well for each cell sample), so as to monitor their vitality at 24, 48 and 120 hours after treatment, with an assay with blue Presto. […] After 120 hours, the combined and concomitant action of hyperthermia and release of the chemotherapeutic agent made the cells unable to recover their growth (vitality of about 40% at 120 hours).

The test system of data set [3] is A431-MOCK cells (do not express the folate receptor). The data set can be described thus: Flow cytometry (FACS) binding of nanocubes to cells. The conditions noted are these: 0.025 mg/mL antibody fragment, PBS, 4° C., 1 hour. The class given is cell-based. On the procedure:
(§1) The A431-tFR and A431-MOCK cells provided by the IRCSS Foundation, National Cancer Institute, Milan, Italy, were grown in the modified Dulbecco culture medium (DMEM, Merck, Kenilworth, USA). IGROV-1 cells (ATCC, UK) were cultured in RPMI-1640 (RPMI-1640, Merck, Kenilworth, USA). The KB cells (ATCC, UK) were cultured in RPMI-1640 without folic acid (RPMI-1640 without folic acid, Merck, Kenilworth, USA). All culture media were added with 10% inactivated fetal bovine serum (FBS), 1% penicillin-streptomycin and 1% glutamine at 37° C., 95% humidity with 5% CO2. The cells were divided every 3-4 days before reaching confluence. In these experiments, the functionalized nanocubes of the invention comprising the antibody fragment in a quantity of 0.025 mg/mL were incubated in PBS at 4° C. for 1 hour with 5×10^5 cells of the cell lines indicated above. As a negative control, the non-functionalised nanocubes with polymer coating were used. Then, after three washes, the cells were incubated for 1 hour at 4° C. with the primary antibody that binds to the myc sequence of the C4 antibody fragment. Following a wash in PBS a secondary antibody conjugated to the fluorescent probe Alexa-488 was added to the cells, capable of binding the Fc portion of the primary antibody.

The test system of data set [4] is A431-tFR cells (A431 transfected with folate receptor gene α-FR). The data set is described as above. The conditions noted are these: 0.025 mg/mL antibody fragment, PBS, 4° C., 1 hour. It counts as cell-based. On the procedure: as §1
For data set [5], the system named is IGROV-1 cells (high natural expression of folate receptors). The data set is described as above. It counts as cell-based. The conditions noted are these: 0.025 mg/mL antibody fragment, PBS, 4° C., 1 hour. On the procedure: as §1
For data set [6], the system named is KB cells (high natural expression of folate receptors). The data set is described as above. The class given is cell-based. To be noted: 0.025 mg/mL antibody fragment, PBS, 4° C., 1 hour. On the procedure: as §1
Data set [7] concerns IGROV-1 cells. The data set can be described thus: Confocal laser scanning microscopy (CLSM) of nanocube internalization. The class given is cell-based.
The nature of data set [8]: Release of platinum from nanocubes in citrate buffer at different pH. The class given is physicochemical. To be noted: pH 5.5, 5 and 4.5. An excerpt: Firstly, in a test tube, the release of platinum from the citrated buffer nanocubes at different pH was verified, according to the expected acidity values for endosomes, late endosomes and lysosomes (pH=5.5, 5 and 4.5 respectively). It has thus been verified that the release of platinum is pH dependent and that the maximum amount of platinum released is obtained at the lowest pH, i.e. at pH 4.5, which corresponds to the pH of the lysosomal environment.

Data set [9] relates to IGROV-1 cells. The data set can be described thus: Comet assay for DNA cross-linking. The class given is cell-based. To be noted: 24, 48, 72 hours incubation, then H2O2. The protocol: Furthermore, once released from the nanocubes, platinum must be incorporated into the cell nuclei and must form crosslinks with the DNA. In fact, its toxicity depends on the impossibility for cells to replicate and transcribe their genetic makeup due to the presence of platinum-DNA complexes. Thus, to evaluate the presence of cross-linking in the DNA of cells treated with nanocubes, a Comet assay was performed, whose results are illustrated in the images in FIG. 7, acquired with a confocal microscope. In this experiment, the cell samples examined of IGROV-1 cells were incubated with the nanocubes with antibody but without platinum (in FIG. 7 indicated as NCs_C4) and with the nanocubes of the invention with antibody and oxaliplatin (indicated in the figure as NCs_OHP_C4) for 24, 48 and 72 hours, so they were treated with H2O2 hydrogen peroxide. As a control, IGROV-1 cells were used, treated with the same nanocubes, with and without platinum, but without treatment with hydrogen peroxide.
The toxicity observed in the cells following treatment with functionalized nanocubes of the invention, we can conclude that it results from the combined effects of hyperthermia and toxicity induced by the platinum-based drug.

[10] abbreviates: 24, 48 and 72 hours, oxaliplatin amount or nanocube concentration as for loaded nanocubes.

Take `O=C1[O][Pt]2([NH][C@@H]3CCCC[C@H]3[NH]2)[O]C1=O` [oxaliplatin, reference compound]: the “toxicity (cell viability, Presto blue)” value in the data set on IGROV-1 cells [1] (setting [10]) is on record as “moderate toxicity”. In addition, the “cell viability after treatment” value with IGROV-1 cells [2] (free drug, 140 μM oxaliplatin (28 μg platinum), 24, 48, 120 hours) was “slightly affected”.

B1: NCs-PEG-Pt-scFv (conjugate)
scFv: NVQLVESGGGLVQPGRSLRLSCTTSGFTFGDYAMIWARQAPGKGLEWVSSISSSSSYIYYADSVKGRFTISRDNAKNSLYLQMNSLRAEDTAVYYCARERYDFWSGMDVWGKGTTVTVSSGGGGSGGGGSGGSAQSALTQPASVSGSPGQSITISCTGTSSDVGSYNLVSWYQQHPGKAPKLMIYEGSKRPSGVSNRFSGSKSGNAASLTISGLQAEDEADYYCQSYDSSLSVVFGGGTKLTVLGAAAHHHHHHGAAEQ
For the molecule B1, the “nanocube binding to cells (fluorescence intensity vs. cell count)” value in data set [3] is reported as “no binding was found”; in [4] it was “nanocube binding was demonstrated”; in [5], “nanocube binding was demonstrated”; in data set [6] it was “nanocube binding was demonstrated”. Moreover, the “cell viability post-incubation (p.i.)” value with IGROV-1 cells [1] (24 hours of treatment, then fresh medium 24, 48, 72 hours) was “decreases after 24 hours of treatment (post-incubation, p.i.) for the next 24 hours and then goes up again after 48 and 72 hours post-incubation”; in the data set with IGROV-1 cells [1] (48 hours of treatment, then fresh medium up to 72 hours) it was “decreases again for the next 72 hours”. The “toxicity (cell viability, Presto blue)” value is given as “Serious toxicity” in the data set on IGROV-1 cells [1] (48 hours incubation, Fe 0.05, 0.1, 0.15 g/L = 1.3, 2.6, 3.9 μM oxaliplatin) and “increased” in the data set on IGROV-1 cells [1] (72 hours incubation vs 48 hours, Fe 0.05, 0.1, 0.15 g/L = 1.3, 2.6, 3.9 μM oxaliplatin). Also, in the data set with IGROV-1 cells [2], the “cell viability at 24 hours” value is “significantly modified cell viability”. In addition, in the data set on IGROV-1 cells [2], the “cell viability at 48 hours” value is given as “further compromised”. Besides, the “cell viability at 120 hours” value with IGROV-1 cells [2] is “about 40%”. For the same molecule, the “localization of nanocubes in cells” value is on record as “most of the nanocubes were located at the cell membrane” in the data set with IGROV-1 cells [7] (2 hours incubation at 37° C.), “progressive internalization” in the data set on IGROV-1 cells [7] (4 hours incubation at 37° C.) and “complete internalization” in the data set on IGROV-1 cells [7] (12 hours incubation at 37° C.). Besides, the “pH of maximum amount of platinum released” value in data set [8] is 4.5. Moreover, the release of platinum result in data set [8] was “pH dependent”. Further, the “DNA trace in Comet assay” value with IGROV-1 cells [9] is “progressive delay in migration reaching a maximum after 72 hours”.

B2: NCs_scFv (conjugate)
scFv: NVQLVESGGGLVQPGRSLRLSCTTSGFTFGDYAMIWARQAPGKGLEWVSSISSSSSYIYYADSVKGRFTISRDNAKNSLYLQMNSLRAEDTAVYYCARERYDFWSGMDVWGKGTTVTVSSGGGGSGGGGSGGSAQSALTQPASVSGSPGQSITISCTGTSSDVGSYNLVSWYQQHPGKAPKLMIYEGSKRPSGVSNRFSGSKSGNAASLTISGLQAEDEADYYCQSYDSSLSVVFGGGTKLTVLGAAAHHHHHHGAAEQ
In the case of B2, the “toxicity (cell viability, Presto blue)” value in the data set with IGROV-1 cells [1] (setting [10]) is “no toxicity”. In the data set with IGROV-1 cells [2], the “cell viability at 24 hours” value is “significantly modified cell viability”, the “cell viability at 48 hours” value was “began to show a recovery” and the “cell viability at 120 hours” value was found to be 95%. Moreover, in the data set on IGROV-1 cells [9], the “DNA trace in Comet assay” value is “traces of extensive damage”.
